Sequences and labels used below:
B1: SEQ ID NO 295 (peptide)
peptide: LSVCSCPPGQLYCMVE
modifications: disulfide (positions not given here); also: disulfide between two of the three Cys, which not given here

Bridge positions count the residues as written; N and C are the ends. Ends that are not written are not given here.

For this assay, the target named is T1, human IL-2Rα subunit (human, UniProt P01589 22-213, limits assumed).
T1 construct: also called CD25
T1 sequence (looked up): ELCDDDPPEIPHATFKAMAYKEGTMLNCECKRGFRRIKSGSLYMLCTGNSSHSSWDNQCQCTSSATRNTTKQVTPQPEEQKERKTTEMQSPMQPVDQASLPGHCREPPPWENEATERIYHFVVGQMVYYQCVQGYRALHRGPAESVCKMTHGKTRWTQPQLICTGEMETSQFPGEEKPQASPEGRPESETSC
On to AICSEDEGGELCCWH [SEQ ID NO 293], for which the IC50 (usually the concentration needed to halve the response being measured) is less than 100 µM.
With CMLKCTNAICECIF [SEQ ID NO 286] the figure was less than 100 µM; with AVSCSRLTGRCHSL [SEQ ID NO 278], less than 100 µM.
Next, RVCCSMVGCRSCNL [SEQ ID NO 264]: less than 100 µM; LDLTYDELLACT [SEQ ID NO 2]: less than 100 µM.
Next, QVCCTSRGCRVCAPV [SEQ ID NO 263]: less than 100 µM; RYCSPLIPGSALGCPR [SEQ ID NO 272]: less than 100 µM; MACCTPRGCRPC [SEQ ID NO 283]: less than 100 µM.
Turning to FVHCTLLGCWSG [SEQ ID NO 24], the IC50 was less than 100 µM.
In the case of RCLDLGGSVGLVCF [SEQ ID NO 254], the IC50 is less than 100 µM.
With CLVFDQYGNYKRRC [SEQ ID NO 261] the figure was less than 100 µM; with HEICCGPPGCHSCSVT [SEQ ID NO 294], less than 100 µM.
With LTCLIFKPGTHRHCPV [SEQ ID NO 271] the figure was less than 100 µM.
With TIKCGSSGWCWVEAG [SEQ ID NO 301] the figure was less than 100 µM.
Regarding MVSCTDLGCVVVGGG [SEQ ID NO 302], the IC50 was less than 100 µM.
With WVACNRLSGCCRPI [SEQ ID NO 281] the figure was less than 100 µM.
With WWISCLRDLRCLEYF [SEQ ID NO 276], the IC50 was less than 100 µM.
CVLREGAEGWECVWR [SEQ ID NO 257] registered an IC50 of less than 100 µM.
With VCCHQTFGCYRCKQ [SEQ ID NO 268] the figure was less than 100 µM.
TCRLKRSGPNSWECI [SEQ ID NO 249] yielded an IC50 of less than 100 µM.
With HTVCCQDWGCRSCSG [SEQ ID NO 282] the figure was less than 100 µM; with CVVCSALGCRACVPR [SEQ ID NO 269], less than 100 µM; with CRMMQGTYGWTCLF (disulfide 1-12 (inferred)) [SEQ ID NO 258], less than 100 µM.
Next, VRCRQNEPGGAYWCSS [SEQ ID NO 256]: less than 100 µM.
Next, LECQPYRGPLYYCQD [SEQ ID NO 289]: less than 100 µM; RGVICNHAGCRIWYG [SEQ ID NO 274]: less than 100 µM.
Consider WVICSAVGCRPF (disulfide 4-9 (inferred)) [SEQ ID NO 31], for which the half-inhibitory concentration (IC50) was less than 100 µM.
WVICSALGCRPF [SEQ ID NO 35] had an IC50 of less than 100 µM.
RSVCCSSYGCRACFG [SEQ ID NO 284] registered an IC50 of less than 100 µM.
In turn, RHACKTWYRMCIVS [SEQ ID NO 277] gave a half-maximal inhibitory concentration (IC50) of less than 100 µM.
Next, CTLYRSAPGVWLCIF [SEQ ID NO 260]: less than 100 µM.
B1 gave a 50% inhibitory concentration (IC50) of less than 100 µM.
With VVHCLQSGCYSVGSG [SEQ ID NO 300] the figure was less than 100 µM; with WVACNRVTGSCRPI [SEQ ID NO 279], less than 100 µM.
Next, RVCCTFAGCRVCHK [SEQ ID NO 265]: less than 100 µM.
Next, FVHCSLMGCWCG [SEQ ID NO 253]: less than 100 µM; IRCRLDPPGSYKTCVF (disulfide 3-14 (inferred)) [SEQ ID NO 273]: less than 100 µM; WVICSALGCRSM [SEQ ID NO 30]: less than 100 µM.
WVICSALGCRSI [SEQ ID NO 33] yielded an IC50 of less than 100 µM.
Next, WVICSALGCRSL [SEQ ID NO 29]: less than 100 µM.
The molecule WVICSAMGCRSI [SEQ ID NO 32] came in with an IC50 of less than 100 µM.
With WVICSAFGCRSM [SEQ ID NO 34] the figure was less than 100 µM.
With CKLTCTSSTCSCVF [SEQ ID NO 285] the figure was less than 100 µM; with HEICCGPPGCHSCSVT [SEQ ID NO 303], less than 100 µM.
With CILNDTIQGWVCIY [SEQ ID NO 259] the figure was less than 100 µM; with MVSCTDLGCVVVGGG [SEQ ID NO 299], less than 100 µM; with AVCCDGNSCRRC [SEQ ID NO 252], less than 100 µM.
The molecule RVCCTSDGCRGCRQ [SEQ ID NO 266] displayed an IC50 of less than 100 µM.
CVACSSDGCSPIIC [SEQ ID NO 292] displayed an IC50 of less than 100 µM.
Molecule IVCCNMFGCHTCRN [SEQ ID NO 262] registered an IC50 of less than 100 µM.
In turn, VWDCFVRGWEAGVAAVGE [SEQ ID NO 270] had an IC50 of less than 100 µM.
With TVCCTVQGCWPCSR [SEQ ID NO 267] the figure was less than 100 µM; with SICCTPQLCHSCDG [SEQ ID NO 290], less than 100 µM; with CRVWCNQAECMCIF [SEQ ID NO 287], less than 100 µM.
Next, RQCNCLSPGELVNCQQ [SEQ ID NO 298]: less than 100 µM.
Take VCFNFRGTVGRHCW [SEQ ID NO 255]: the IC50 is less than 100 µM.
With SHGVCCTQSSCRSCR [SEQ ID NO 280] the figure was less than 100 µM; with AVSCNSWRCIPW [SEQ ID NO 251], less than 100 µM; with TTCCTSEGCHKCITL [SEQ ID NO 291], less than 100 µM.
The molecule TTQSCTLRYCWLLQ (disulfide 5-10 (inferred)) [SEQ ID NO 275] returned a 50% inhibitory concentration (IC50) of less than 100 µM.
With SRCSFDVTKQECVF (disulfide 3-12 (inferred)) [SEQ ID NO 288] the figure was less than 100 µM; with WCIGQPLFRQGSCK [SEQ ID NO 250], less than 100 µM; with VTQCFDGPGSFRCCYQ [SEQ ID NO 297], less than 100 µM.
The molecule STWCCLHPGVGECQAV [SEQ ID NO 296] showed an IC50 of less than 100 µM.
